{
  "source": "patent US20110171215A1",
  "about": "(published 2011)",
  "binders": {"B1": {"name": "Clone 10 anti-PD-1 antibody (antibody, V domains shown)", "VH": "DVQLQESGPGLVKPSQSLSLTCTVTGYSITSDYAWNWIRQFPGNKLEWMGYINYSGSTSYNPSLKSRISITRDTSKNQFFLQLNSVTTEDTATYYCARWIGSSAWYFDVWGAGTTVTV", "VL": "DVLMTQTPLSLPVSLGDQASISCRSGQNIVHSNGNTYLEWYLQKPGQSPKLLIYKVSNRFFGVPDRISGSGSGTDFTLKISRVEAEDLGVYFCFQGSHVPFTFGSGTKLEIK"}, "B2": {"name": "Clone 19 anti-PD-1 antibody (antibody, V domains shown)", "VH": "QVQLQQSGAELVKPGASVKMSCKAFGYTFTTYPIEWMKQNHGKSLEWIGNFHPYNDDTKYNEKFKGKAKLTVEKSSTTVYLELSRLTSDDSAVYYCARENYGSHGGFVYWGQGTLVTV", "VL": "ENVLTQSPAIMSASPGEKVTMTCRASSSVISSYLHWYQQKSGASPKLWIYSTSNLASGVPDRFSGSGSGTSYSLTISSVEAEDAATYYCQQYNGYPLTFGAGTKLEIK"}, "B3": {"name": "Clone 2 anti-PD-1 antibody (antibody, V domains shown)", "VH": "QVQLQQPGAELVKPGASVKLSCKASGYTFTTYYLYWVRQRPGQGLEWIGGINPSNGGTNFNEKFKSKATLTVDKSSSTAYMQLNSLTSEDSAVYYCTRRDYRYDRGFDYWGQGTSVTV", "VL": "DIVLTQSPASLAVSLGQRATISCRASKSVSTSGFNYIHWYQQKPGQPPKLLIYLASNLESGVPARFSGSGSGTDFTLNIHPVEDEDAATYYCQHSRELPLTFGAGTKLEIK"}},
  "data": [
    {"biological_target": "Monomeric soluble human PD-1 (human, UniProt Q15116 25-170)", "sequence (Q15116 25-170)": "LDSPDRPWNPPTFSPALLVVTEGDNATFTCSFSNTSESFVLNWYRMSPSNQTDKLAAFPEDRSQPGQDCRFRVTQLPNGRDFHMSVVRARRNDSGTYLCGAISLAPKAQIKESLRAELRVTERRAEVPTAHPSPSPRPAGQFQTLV", "assay": "SPR", "units": {"koff": "s⁻¹"}, "values": [
      {"binder": "B1", "koff": "~0.4"},
      {"binder": "B2", "koff": "~0.0013"},
      {"binder": "B3", "koff": "~0.0027"}
    ]}
  ]
}
